Experimental data taken from patent US20260008815A1, “CYCLIC PEPTIDE OR SALT THEREOF, AND USES THEREOF” (FUJIFILM Corporation, priority 2023, published 2026).
Bridge positions count the residues as written; N and C are the ends. Ends that are not written are not given here. COCH2 = acetyl group that carries the bridge

Target: T1, Recombinant Human FGFR2 alpha (IIIc) Fc Chimera Protein (Homo sapiens, UniProt P21802)
T1 construct: Fc (chimera); purchased R&D systems 712-FR-050
Assay: ELISA binding affinity of enzymatically synthesized peptide to FGFR
Settings: ELISA luminescence signal at 10 nmol/L peptide, SEQ ID NO: 47 at 10 nmol/L standardized to 1; enzyme synthesis product
How it was run: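 FGFR2 alpha (IIIc) Fc chimera (5 ng/well) was immobilized, and Myc-tagged peptide was bound 3 h at room temperature, then detected with anti-Myc antibody (2 h) and chemiluminescent substrate. Signal was corrected against FGFR-free wells. Score A–D was the luminescence at 10 nmol/L peptide, normalized to cyclic peptide SEQ ID NO: 47.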

T1 sequence (P21802 with tags, fused parts or gaps limits assumed): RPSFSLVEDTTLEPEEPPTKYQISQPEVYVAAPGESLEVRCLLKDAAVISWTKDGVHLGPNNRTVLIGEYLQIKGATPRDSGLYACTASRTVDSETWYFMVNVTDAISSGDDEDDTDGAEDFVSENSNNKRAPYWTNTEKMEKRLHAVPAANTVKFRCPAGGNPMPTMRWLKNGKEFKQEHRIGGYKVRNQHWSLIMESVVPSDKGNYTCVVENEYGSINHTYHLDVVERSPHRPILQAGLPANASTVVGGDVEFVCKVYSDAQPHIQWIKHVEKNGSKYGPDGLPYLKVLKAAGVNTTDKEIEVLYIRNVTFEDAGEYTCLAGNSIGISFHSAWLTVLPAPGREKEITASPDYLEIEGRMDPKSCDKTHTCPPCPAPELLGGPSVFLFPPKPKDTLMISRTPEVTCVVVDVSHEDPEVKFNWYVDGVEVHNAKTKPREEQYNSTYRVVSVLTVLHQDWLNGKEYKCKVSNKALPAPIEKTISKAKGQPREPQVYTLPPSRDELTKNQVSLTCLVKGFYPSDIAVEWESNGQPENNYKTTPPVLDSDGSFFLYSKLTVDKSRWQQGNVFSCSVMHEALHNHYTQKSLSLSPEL

Row | Evaluation result of binding affinity to FGFR | Substance
1 | C (0.1 or more and less than 0.5) | 193 (YCEENRLDPEQYQYFIYFK(COCH2)Y; thioether 2-19 (inferred)) [compound 193]
2 | A (0.7 or more) | 194 (YCEENHLDPEQYQYFIYFK(COCH2)Y; thioether 2-19 (inferred)) [compound 194]
3 | A (0.7 or more) | 195 (YCEENYIDPEQYQYFIYFK(COCH2)Y; thioether 2-19 (inferred)) [compound 195]
4 | A (0.7 or more) | 196 (YCEENYVDPEQYQYFIYFK(COCH2)Y; thioether 2-19 (inferred)) [compound 196]
5 | A (0.7 or more) | 197 (YCEENYFDPEQYQYFIYFK(COCH2)Y; thioether 2-19 (inferred)) [compound 197]
6 | A (0.7 or more) | 198 (YCEENYYDPEQYQYFIYFK(COCH2)Y; thioether 2-19 (inferred)) [compound 198]
7 | A (0.7 or more) | 199 (YCEENYWDPEQYQYFIYFK(COCH2)Y; thioether 2-19 (inferred)) [compound 199]
8 | C (0.1 or more and less than 0.5) | 200 (YCEENYNDPEQYQYFIYFK(COCH2)Y; thioether 2-19 (inferred)) [compound 200]
9 | A (0.7 or more) | 201 (YCEENYQDPEQYQYFIYFK(COCH2)Y; thioether 2-19 (inferred)) [compound 201]
10 | B (0.5 or more and less than 0.7) | 202 (YCEENYSDPEQYQYFIYFK(COCH2)Y; thioether 2-19 (inferred)) [compound 202]
11 | A (0.7 or more) | 203 (YCEENYTDPEQYQYFIYFK(COCH2)Y; thioether 2-19 (inferred)) [compound 203]
12 | C (0.1 or more and less than 0.5) | 204 (YCEENYEDPEQYQYFIYFK(COCH2)Y; thioether 2-19 (inferred)) [compound 204]
13 | A (0.7 or more) | 205 (YCEENYRDPEQYQYFIYFK(COCH2)Y; thioether 2-19 (inferred)) [compound 205]
14 | A (0.7 or more) | 206 (YCEENYHDPEQYQYFIYFK(COCH2)Y; thioether 2-19 (inferred)) [compound 206]
15 | A (0.7 or more) | 207 (YCEENYLGPEQYQYFIYFK(COCH2)Y; thioether 2-19 (inferred)) [compound 207]
16 | C (0.1 or more and less than 0.5) | 208 (YCEENYLLPEQYQYFIYFK(COCH2)Y; thioether 2-19 (inferred)) [compound 208]
17 | C (0.1 or more and less than 0.5) | 209 (YCEENYLIPEQYQYFIYFK(COCH2)Y; thioether 2-19 (inferred)) [compound 209]
18 | C (0.1 or more and less than 0.5) | 210 (YCEENYLVPEQYQYFIYFK(COCH2)Y; thioether 2-19 (inferred)) [compound 210]
19 | A (0.7 or more) | 211 (YCEENYLFPEQYQYFIYFK(COCH2)Y; thioether 2-19 (inferred)) [compound 211]
20 | A (0.7 or more) | 212 (YCEENYLYPEQYQYFIYFK(COCH2)Y; thioether 2-19 (inferred)) [compound 212]
21 | B (0.5 or more and less than 0.7) | 213 (YCEENYLWPEQYQYFIYFK(COCH2)Y; thioether 2-19 (inferred)) [compound 213]
22 | A (0.7 or more) | 214 (YCEENYLNPEQYQYFIYFK(COCH2)Y; thioether 2-19 (inferred)) [compound 214]
23 | A (0.7 or more) | 215 (YCEENYLQPEQYQYFIYFK(COCH2)Y; thioether 2-19 (inferred)) [compound 215]
24 | A (0.7 or more) | 216 (YCEENYLSPEQYQYFIYFK(COCH2)Y; thioether 2-19 (inferred)) [compound 216]
